Test results taken from article PMC5861439 (Nucleic Acids Research, 2017).

What was measured:
[1] = system: Rtt109; conditions: ref [13–14],[21–22]; cited from earlier work
[2] = system: Asf1–H3:H4 complex; assay: NMR 13C-HMQC; format: binding, Asf1 Saccharomyces cerevisiae; histones Xenopus laevis; conditions: Rtt109 added to Asf1–H3:H4–Vps75_2; 50 mM sodium citrate pH 6.5, 150 mM NaCl, 5 mM BME, 850 MHz, 298 K
[3] = system: 15N-labeled H3 in the H3:H4 complex; assay: NMR 15N-HSQC CSPs of 15N-labeled histone H3 in the H3:H4 complex; format: binding, Xenopus laevis; conditions: Rtt109 added to Asf1–H3:H4 (15N-labeled H3); 50 mM sodium citrate pH 6.2, 150 mM NaCl, 5 mM BME, 600 MHz, 298 K

Substance	acetyltransferase activity alone / activation of Rtt109 by chaperones (in words) [1]	Asf1 CSPs upon addition of Rtt109 in the presence of Vps75 (in words) [2]	competition with the H3 tail for Asf1 (in words) [3]
Vps75_2: Vps75 homodimer, histone chaperone (Saccharomyces cerevisiae)	strongly activated		
Asf1: Saccharomyces cerevisiae Asf1 (2–169), histone-specific chaperone	strongly activated		
Rtt109: full-length Saccharomyces cerevisiae Rtt109, fungal histone acetyltransferase	very low acetyltransferase activity	large Asf1 CSPs	can out-compete the H3 tail for the same interaction surface on Asf1
